{"source": "paper PMC8173049", "about": "(2021)", "molecular_target": "HAdV-D26 capsid (replication-defective, E1-deleted vector particle with a GFP-luciferase fusion expression … (human adenovirus D26))", "experiment": "SPR", "data": [{"binder": "human lactoferrin (natural protein) GRRRSVQWCAVSQPEATKCFQWQRNMRKVRGPPVSCIKRDSPIQCIQAIAENRADAVTLDGGFIYEAGLAPYKLRPVAAEVYGTERQPRTHYYAVAVVKKGGSFQLNELQGLKSCHTGLRRTAGWNVPIGTLRPFLNWTGPPEPIEAAVARFFSASCVPGADKGQFPNLCRLCAGTGENKCAFSSQEPYFSYSGAFKCLRDGAGDVAFIRESTVFEDLSDEAERDEYELLCPDNTRKPVDKFKDCHLARVPSHAVVARSVNGKEDAIWNLLRQAQEKFGKDKSPKFQLFGSPSGQKDLLFKDSAIGFSRVPPRIDSGLYLGSGYFTAIQNLRKSEEEVAARRARVVWCAVGEQELRKCNQWSGLSEGSVTCSSASTTEDCIALVLKGEADAMSLDGGYVYTAGKCGLVPVLAENYKSQQSSDPDPNCVDRPVEGYLAVAVVRRSDTSLTWNSVKGKKSCHTAVDRTAGWNIPMGLLFNQTGSCKFDEYFSQSCAPGSDPRSNLCALCIGDEQGENKCVPNSNERYYGYTGAFRCLAENAGDVAFVKDVTVLQNTDGNNNEAWAKDLKLADFALLCLDGKRKPVTEARSCHLAMAPNHAVVSRMDKVERLKQVLLHQQAKFGRNGSDCPDKFCLFQSETKNLLFNDNTECLARLHGKTTYEKYLGPQYVAGITNLKKCSTSPLLEACEFLRK", "values": [{"measurement": "Kd", "result": 2.55, "unit": "µM"}]}]}
